Biological target: CD86 mutant 1040 conjugated to an anti-CD40 antibody as part of a bispecific molecule (human)
Assay: inhibition ELISA: CD86 mutant 1040 on an anti-CD40 antibody pre-incubated with the soluble CTLA-4 in a dilution series, mixture added to coated human CTLA-4 (the competitor)

Chain of CD86 mutant 1040 conjugated to an anti-CD40 antibody as part of a bispecific molecule (human) (chain, as listed by the source limits assumed): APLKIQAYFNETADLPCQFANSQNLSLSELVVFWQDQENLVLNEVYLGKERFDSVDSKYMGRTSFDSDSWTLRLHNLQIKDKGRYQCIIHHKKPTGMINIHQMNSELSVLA

CTLA4-Fc (Fitzgerald, #30R-CD152) (from UniProt P16410 38-152) (Fc fusion)
IC50 (read off the curve): 1 µg/mL

soluble murine CTLA-4 (R&D systems) (from UniProt P09793 36-162) (receptor)
IC50 (read off the curve): 0.8 µg/mL
